Assay in all cases: filter binding
In one series the target is T1, Cdc6-1 FL (Methanothermobacter thermautotrophicus, UniProt O27463 1-382).
T1 sequence: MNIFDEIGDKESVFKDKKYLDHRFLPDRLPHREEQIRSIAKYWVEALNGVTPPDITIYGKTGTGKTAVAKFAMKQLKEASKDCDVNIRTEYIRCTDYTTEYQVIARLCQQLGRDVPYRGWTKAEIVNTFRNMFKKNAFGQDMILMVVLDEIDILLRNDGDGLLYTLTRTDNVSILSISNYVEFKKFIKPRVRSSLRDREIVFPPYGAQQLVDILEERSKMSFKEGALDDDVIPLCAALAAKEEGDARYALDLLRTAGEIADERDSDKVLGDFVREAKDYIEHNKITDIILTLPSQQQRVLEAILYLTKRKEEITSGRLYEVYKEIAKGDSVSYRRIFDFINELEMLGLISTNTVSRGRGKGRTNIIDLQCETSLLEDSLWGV

A further series concerns the target T2, Cdc6-2 FL (Methanothermobacter thermautotrophicus, UniProt O27636 1-379).
T2 sequence: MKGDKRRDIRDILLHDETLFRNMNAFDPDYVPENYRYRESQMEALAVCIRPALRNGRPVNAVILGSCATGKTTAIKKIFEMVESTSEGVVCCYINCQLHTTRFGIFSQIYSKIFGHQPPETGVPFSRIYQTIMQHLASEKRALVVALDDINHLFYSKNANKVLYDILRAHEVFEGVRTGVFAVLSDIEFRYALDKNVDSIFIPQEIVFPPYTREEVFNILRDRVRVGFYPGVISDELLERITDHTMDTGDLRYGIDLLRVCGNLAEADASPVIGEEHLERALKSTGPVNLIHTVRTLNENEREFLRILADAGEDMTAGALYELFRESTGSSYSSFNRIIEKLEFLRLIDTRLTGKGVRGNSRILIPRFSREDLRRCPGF

A further series has as its target T3, Cdc6-1 WH (Methanothermobacter thermautotrophicus, UniProt O27463 287-382).
T3 sequence: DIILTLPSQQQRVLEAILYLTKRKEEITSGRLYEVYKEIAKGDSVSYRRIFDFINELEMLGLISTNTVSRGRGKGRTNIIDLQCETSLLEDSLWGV

The target of a further series is T4, Cdc6-2 WH (Methanothermobacter thermautotrophicus, UniProt O27636 292-379).
T4 sequence: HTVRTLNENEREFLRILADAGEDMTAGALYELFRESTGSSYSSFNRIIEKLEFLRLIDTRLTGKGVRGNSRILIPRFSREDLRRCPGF

B1: MR163 45mer ssDNA (ssDNA)
DNA: TACATATGTACATGGGTACATATGTACATGGGTACATATGTACAT
Take B1: the binding result is “no binding” with Cdc6-1 FL and “binds” in the series with Cdc6-2 FL.

B2: MR163/MR164 45 bp dsDNA (dsDNA)
DNA 1: B1 DNA
DNA 2: ATGTACATATGTACCCATGTACATATGTACCCATGTACATATGTA
For B2, the results for the binding result in the series with Cdc6-2 FL, in the series with Cdc6-1 WH and in the series with Cdc6-2 WH were “binds”, “no binding” and “no binding”, respectively.

These data come from paper PMC1201339.
